{"source": "paper PMC5368644", "test_in_all_cases": "NMR", "conditions_in_all_cases": "25 °C; Not stated for the titration samples (structure samples contained 45 mM NaCl, 1 mM EDTA, 1 mM EGTA); Phosphate buffer for pH 7.3 to 5.9; acetate buffer for pH 5.5 to 3.5; pH changed by buffer exchange; concentrations not given; Ca2+-free, ligand-free, folded (the protein starts to unfold at pH 3 or below); ~0.5 mM protein", "key": {"Asp109": {"molecular_target": "Asp109 (UniProt position 136, FTVQLDDYLNG)"}, "Asp110": {"molecular_target": "Asp110 (UniProt position 137, TVQLDDYLNGR)"}, "Asp50": {"molecular_target": "Asp50 (UniProt position 77, RVEKFDLVPVP)"}, "Asp61": {"molecular_target": "Asp61 (UniProt position 88, TNLYGDFFTGD)"}, "Asp66": {"molecular_target": "Asp66 (UniProt position 93, DFFTGDAYVIL)"}, "Asp84": {"molecular_target": "Asp84 (UniProt position 111, GNLQYDLHYWL)"}, "Asp96": {"molecular_target": "Asp96 (UniProt position 123, NECSQDESGAA)"}, "Glu121": {"molecular_target": "Glu121 (UniProt position 148, AVQHREVQGFE)"}, "Glu126": {"molecular_target": "Glu126 (UniProt position 153, EVQGFESATFL)"}, "Glu156": {"molecular_target": "Glu156 (UniProt position 183, HVVPNEVVVQR)"}, "Glu38": {"molecular_target": "Glu38 (UniProt position 65, LKAGKEPGLQI)"}, "Glu47": {"molecular_target": "Glu47 (UniProt position 74, QIWRVEKFDLV)"}, "Glu92": {"molecular_target": "Glu92 (UniProt position 119, YWLGNECSQDE)"}, "Glu97": {"molecular_target": "Glu97 (UniProt position 124, ECSQDESGAAA)"}, "His119": {"molecular_target": "His119 (UniProt position 146, GRAVQHREVQG)"}, "His151": {"molecular_target": "His151 (UniProt position 178, ASGFKHVVPNE)"}, "His29": {"molecular_target": "His29 (UniProt position 56, SMVVEHPEFLK)"}, "His86": {"molecular_target": "His86 (UniProt position 113, LQYDLHYWLGN)"}}, "data": [{"substance": "Gelsolin fragment G1+ (domain 1 plus G1-G2 linker) (Homo sapiens (inferred; not stated explicitly in the article))", "values": [{"measurement": "pKa", "setting": "Asp109", "value": 5.5}, {"measurement": "pKa", "setting": "Asp110", "value": 4.3}, {"measurement": "pKa", "setting": "Asp50", "value": 4.8}, {"measurement": "pKa", "setting": "Asp61", "value": 4.5}, {"measurement": "pKa", "setting": "Asp66", "value": 3.9}, {"measurement": "pKa", "setting": "Asp84", "value": "<3.5"}, {"measurement": "pKa", "setting": "Asp96", "value": "<3.5"}, {"measurement": "pKa", "setting": "Glu121", "value": "<3.5"}, {"measurement": "pKa", "setting": "Glu126", "value": "<3.5"}, {"measurement": "pKa", "setting": "Glu156", "value": 3.8}, {"measurement": "pKa", "setting": "Glu38", "value": 4.1}, {"measurement": "pKa", "setting": "Glu47", "value": "<3.5"}, {"measurement": "pKa", "setting": "Glu92", "value": 4.3}, {"measurement": "pKa", "setting": "Glu97", "value": "<3.5"}, {"measurement": "pKa", "setting": "His119", "value": 4.3}, {"measurement": "pKa", "setting": "His151", "value": 6.2}, {"measurement": "pKa", "setting": "His29", "value": 5.9}, {"measurement": "pKa", "setting": "His86", "value": 4.2}]}]}
